Molecular target: T1, human GITR, membrane bound (on activated human T cells and on 3A9-hGITR cells) (human, UniProt Q9Y5U5 26-241)
T1 construct: whole, on cells; the cell is named under assay; also called huGITR; TNFRSF18
T1 sequence (looked up): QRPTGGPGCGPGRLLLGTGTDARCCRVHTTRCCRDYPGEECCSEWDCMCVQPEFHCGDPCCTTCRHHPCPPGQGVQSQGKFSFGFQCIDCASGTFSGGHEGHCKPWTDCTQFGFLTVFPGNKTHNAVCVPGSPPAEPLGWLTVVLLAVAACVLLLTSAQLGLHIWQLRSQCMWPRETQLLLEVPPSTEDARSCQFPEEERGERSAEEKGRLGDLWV
Test: FACS binding to 3A9-hGITR transfectant, Geo-MFI (PE); EC50 table beside the curves; unit from the axis

B1: 28F3 VH CDR3 mutant M98A, D106E, M111L (antibody, V domains shown)
VH: QVQLVESGGGVVQPGRSLRLSCAASGFTFSSYGMHWVRQAPGKGLEWVAVIWYEGSNKYYADSVKGRFTISRDNSKNTLYLQMNSLRAEDTAVYYCARGGSAVRGEYYYGLDVWGQGTTVTVSS
VL: AIQLTQSPSSLSASVGDRVTITCRASQGISSALAWYQQKPGKAPKLLIYDASSLESGVPSRFSGSGSGTDFTLTISSLQPEDFATYYCQQFNSYPYTFGQGTKLEIK
notes: also called G3
Binder B1 has an EC50 of 62 nM.

B2: 28F3 VH CDR3 mutant M98S, D106E, M111L (antibody, V domains shown)
VH: QVQLVESGGGVVQPGRSLRLSCAASGFTFSSYGMHWVRQAPGKGLEWVAVIWYEGSNKYYADSVKGRFTISRDNSKNTLYLQMNSLRAEDTAVYYCARGGSSVRGEYYYGLDVWGQGTTVTVSS
VL: AIQLTQSPSSLSASVGDRVTITCRASQGISSALAWYQQKPGKAPKLLIYDASSLESGVPSRFSGSGSGTDFTLTISSLQPEDFATYYCQQFNSYPYTFGQGTKLEIK
B2 showed an EC50 of about 1250 nM.

B3: 28F3 VH CDR3 mutant M98F, D106E, M111L (antibody, V domains shown)
VH: QVQLVESGGGVVQPGRSLRLSCAASGFTFSSYGMHWVRQAPGKGLEWVAVIWYEGSNKYYADSVKGRFTISRDNSKNTLYLQMNSLRAEDTAVYYCARGGSFVRGEYYYGLDVWGQGTTVTVSS
VL: AIQLTQSPSSLSASVGDRVTITCRASQGISSALAWYQQKPGKAPKLLIYDASSLESGVPSRFSGSGSGTDFTLTISSLQPEDFATYYCQQFNSYPYTFGQGTKLEIK
notes: also called B3
Work on B3 yielded an EC50 of 417 nM.

B4: 28F3 VH CDR3 mutant M98Q, D106E, M111L (antibody, V domains shown)
VH: QVQLVESGGGVVQPGRSLRLSCAASGFTFSSYGMHWVRQAPGKGLEWVAVIWYEGSNKYYADSVKGRFTISRDNSKNTLYLQMNSLRAEDTAVYYCARGGSQVRGEYYYGLDVWGQGTTVTVSS
VL: AIQLTQSPSSLSASVGDRVTITCRASQGISSALAWYQQKPGKAPKLLIYDASSLESGVPSRFSGSGSGTDFTLTISSLQPEDFATYYCQQFNSYPYTFGQGTKLEIK
notes: also called E3
In the case of B4, the EC50 is reported as 20.4 nM.

B5: 28F3 VH CDR3 mutant M98S, M111F (antibody, V domains shown)
VH: QVQLVESGGGVVQPGRSLRLSCAASGFTFSSYGMHWVRQAPGKGLEWVAVIWYEGSNKYYADSVKGRFTISRDNSKNTLYLQMNSLRAEDTAVYYCARGGSSVRGDYYYGFDVWGQGTTVTVSS
VL: AIQLTQSPSSLSASVGDRVTITCRASQGISSALAWYQQKPGKAPKLLIYDASSLESGVPSRFSGSGSGTDFTLTISSLQPEDFATYYCQQFNSYPYTFGQGTKLEIK
notes: also called F2
B5 was tested, and the EC50 was 246 nM.

B6: 28F3 VH CDR3 mutant M98I, M111L (antibody, V domains shown)
VH: QVQLVESGGGVVQPGRSLRLSCAASGFTFSSYGMHWVRQAPGKGLEWVAVIWYEGSNKYYADSVKGRFTISRDNSKNTLYLQMNSLRAEDTAVYYCARGGSIVRGDYYYGLDVWGQGTTVTVSS
VL: AIQLTQSPSSLSASVGDRVTITCRASQGISSALAWYQQKPGKAPKLLIYDASSLESGVPSRFSGSGSGTDFTLTISSLQPEDFATYYCQQFNSYPYTFGQGTKLEIK
notes: also called D1
In the case of B6, the EC50 is reported as 1.03 nM.

B7: 28F3 VH CDR3 mutant M98I, D106E, M111L (antibody, V domains shown)
VH: QVQLVESGGGVVQPGRSLRLSCAASGFTFSSYGMHWVRQAPGKGLEWVAVIWYEGSNKYYADSVKGRFTISRDNSKNTLYLQMNSLRAEDTAVYYCARGGSIVRGEYYYGLDVWGQGTTVTVSS
VL: AIQLTQSPSSLSASVGDRVTITCRASQGISSALAWYQQKPGKAPKLLIYDASSLESGVPSRFSGSGSGTDFTLTISSLQPEDFATYYCQQFNSYPYTFGQGTKLEIK
notes: also called D3
For B7, the EC50 was 1.07 nM.

B8: 28F3 VH CDR3 mutant M98I, M111F (antibody, V domains shown)
VH: QVQLVESGGGVVQPGRSLRLSCAASGFTFSSYGMHWVRQAPGKGLEWVAVIWYEGSNKYYADSVKGRFTISRDNSKNTLYLQMNSLRAEDTAVYYCARGGSIVRGDYYYGFDVWGQGTTVTVSS
VL: AIQLTQSPSSLSASVGDRVTITCRASQGISSALAWYQQKPGKAPKLLIYDASSLESGVPSRFSGSGSGTDFTLTISSLQPEDFATYYCQQFNSYPYTFGQGTKLEIK
notes: also called D2
B8 showed an EC50 of 1.33 nM.

B9: 28F3 VH CDR3 mutant M98A, M111F (antibody, V domains shown)
VH: QVQLVESGGGVVQPGRSLRLSCAASGFTFSSYGMHWVRQAPGKGLEWVAVIWYEGSNKYYADSVKGRFTISRDNSKNTLYLQMNSLRAEDTAVYYCARGGSAVRGDYYYGFDVWGQGTTVTVSS
VL: AIQLTQSPSSLSASVGDRVTITCRASQGISSALAWYQQKPGKAPKLLIYDASSLESGVPSRFSGSGSGTDFTLTISSLQPEDFATYYCQQFNSYPYTFGQGTKLEIK
notes: also called G2
Binder B9 has an EC50 of 171 nM.

B10: 28F3 VH CDR3 mutant M98F, M111L (antibody, V domains shown)
VH: QVQLVESGGGVVQPGRSLRLSCAASGFTFSSYGMHWVRQAPGKGLEWVAVIWYEGSNKYYADSVKGRFTISRDNSKNTLYLQMNSLRAEDTAVYYCARGGSFVRGDYYYGLDVWGQGTTVTVSS
VL: AIQLTQSPSSLSASVGDRVTITCRASQGISSALAWYQQKPGKAPKLLIYDASSLESGVPSRFSGSGSGTDFTLTISSLQPEDFATYYCQQFNSYPYTFGQGTKLEIK
notes: also called B1
For B10, the EC50 was 51.8 nM.

B11: 28F3 VH CDR3 mutant M98Q, M111L (antibody, V domains shown)
VH: QVQLVESGGGVVQPGRSLRLSCAASGFTFSSYGMHWVRQAPGKGLEWVAVIWYEGSNKYYADSVKGRFTISRDNSKNTLYLQMNSLRAEDTAVYYCARGGSQVRGDYYYGLDVWGQGTTVTVSS
VL: AIQLTQSPSSLSASVGDRVTITCRASQGISSALAWYQQKPGKAPKLLIYDASSLESGVPSRFSGSGSGTDFTLTISSLQPEDFATYYCQQFNSYPYTFGQGTKLEIK
notes: also called E1
In the case of B11, the EC50 is reported as 21.7 nM.

B12: 28F3 VH CDR3 mutant M98Q, M111F (antibody, V domains shown)
VH: QVQLVESGGGVVQPGRSLRLSCAASGFTFSSYGMHWVRQAPGKGLEWVAVIWYEGSNKYYADSVKGRFTISRDNSKNTLYLQMNSLRAEDTAVYYCARGGSQVRGDYYYGFDVWGQGTTVTVSS
VL: AIQLTQSPSSLSASVGDRVTITCRASQGISSALAWYQQKPGKAPKLLIYDASSLESGVPSRFSGSGSGTDFTLTISSLQPEDFATYYCQQFNSYPYTFGQGTKLEIK
notes: also called E2
Binder B12 has an EC50 of 16.6 nM.

B13: 28F3 VH CDR3 mutant M98L, D106E, M111L (antibody, V domains shown)
VH: QVQLVESGGGVVQPGRSLRLSCAASGFTFSSYGMHWVRQAPGKGLEWVAVIWYEGSNKYYADSVKGRFTISRDNSKNTLYLQMNSLRAEDTAVYYCARGGSLVRGEYYYGLDVWGQGTTVTVSS
VL: AIQLTQSPSSLSASVGDRVTITCRASQGISSALAWYQQKPGKAPKLLIYDASSLESGVPSRFSGSGSGTDFTLTISSLQPEDFATYYCQQFNSYPYTFGQGTKLEIK
notes: also called C3
Binder B13 has an EC50 of 1.22 nM.

B14: 28F3 VH CDR3 mutant M98A, M111L (antibody, V domains shown)
VH: QVQLVESGGGVVQPGRSLRLSCAASGFTFSSYGMHWVRQAPGKGLEWVAVIWYEGSNKYYADSVKGRFTISRDNSKNTLYLQMNSLRAEDTAVYYCARGGSAVRGDYYYGLDVWGQGTTVTVSS
VL: AIQLTQSPSSLSASVGDRVTITCRASQGISSALAWYQQKPGKAPKLLIYDASSLESGVPSRFSGSGSGTDFTLTISSLQPEDFATYYCQQFNSYPYTFGQGTKLEIK
notes: also called G1
B14 gave an EC50 of 187 nM.

B15: 28F3 VH CDR3 mutant M98L, M111F (antibody, V domains shown)
VH: QVQLVESGGGVVQPGRSLRLSCAASGFTFSSYGMHWVRQAPGKGLEWVAVIWYEGSNKYYADSVKGRFTISRDNSKNTLYLQMNSLRAEDTAVYYCARGGSLVRGDYYYGFDVWGQGTTVTVSS
VL: AIQLTQSPSSLSASVGDRVTITCRASQGISSALAWYQQKPGKAPKLLIYDASSLESGVPSRFSGSGSGTDFTLTISSLQPEDFATYYCQQFNSYPYTFGQGTKLEIK
notes: also called C2
B15 showed an EC50 of 1.38 nM.

B16: 28F3 VH CDR3 mutant M98L, M111L (antibody, V domains shown)
VH: QVQLVESGGGVVQPGRSLRLSCAASGFTFSSYGMHWVRQAPGKGLEWVAVIWYEGSNKYYADSVKGRFTISRDNSKNTLYLQMNSLRAEDTAVYYCARGGSLVRGDYYYGLDVWGQGTTVTVSS
VL: AIQLTQSPSSLSASVGDRVTITCRASQGISSALAWYQQKPGKAPKLLIYDASSLESGVPSRFSGSGSGTDFTLTISSLQPEDFATYYCQQFNSYPYTFGQGTKLEIK
notes: also called C1
With B16 the EC50 was 0.674 nM.
